We go through eight molecules from patent publication US20160207996A1 (ARGEN X N V, published 2016).

T1: hNav1.7-loopB1-C1-D1-llama Fc (human)
T1 construct: whole entry: loops B1, C1, D1 joined by linkers, llama Fc; also called hNav1.7-loopB1-C1-D1-llfc
T1 chain: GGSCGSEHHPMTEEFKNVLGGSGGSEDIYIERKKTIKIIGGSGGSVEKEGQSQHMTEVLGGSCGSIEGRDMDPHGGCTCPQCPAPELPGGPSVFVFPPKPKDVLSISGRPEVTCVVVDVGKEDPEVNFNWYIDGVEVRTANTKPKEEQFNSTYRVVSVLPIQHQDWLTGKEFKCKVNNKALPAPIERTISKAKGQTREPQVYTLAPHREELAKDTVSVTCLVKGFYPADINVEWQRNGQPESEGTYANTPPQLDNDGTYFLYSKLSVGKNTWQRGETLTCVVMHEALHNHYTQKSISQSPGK

T2: hNav1.5-B1-C1-D1-llFc (human)
T2 construct: also called Nav1.5 extracellular loop B1-C1-D1 llamaFc chimera
T2 chain: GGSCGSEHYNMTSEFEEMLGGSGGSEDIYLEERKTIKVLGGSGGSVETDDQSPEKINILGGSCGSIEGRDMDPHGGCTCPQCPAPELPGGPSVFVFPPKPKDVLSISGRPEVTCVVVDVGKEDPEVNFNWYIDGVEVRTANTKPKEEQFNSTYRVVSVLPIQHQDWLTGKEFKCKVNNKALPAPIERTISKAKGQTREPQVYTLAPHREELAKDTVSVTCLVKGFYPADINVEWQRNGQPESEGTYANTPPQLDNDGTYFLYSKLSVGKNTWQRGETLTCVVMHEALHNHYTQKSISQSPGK

T3: hNav1.7-loopA3-llama Fc fusion (human)
T3 construct: also called hNav1.7-loopA3-llFc; loopA3-llamaFc chimera
T3 chain: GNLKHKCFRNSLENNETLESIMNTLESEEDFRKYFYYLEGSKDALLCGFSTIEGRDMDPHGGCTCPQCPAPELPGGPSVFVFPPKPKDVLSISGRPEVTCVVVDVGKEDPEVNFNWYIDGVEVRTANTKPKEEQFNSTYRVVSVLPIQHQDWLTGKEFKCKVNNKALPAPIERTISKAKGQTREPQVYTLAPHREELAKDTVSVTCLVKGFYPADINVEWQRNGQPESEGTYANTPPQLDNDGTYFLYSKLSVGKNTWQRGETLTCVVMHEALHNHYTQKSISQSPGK

T4: RatB1-C1-D1-llFc (rat)
T4 construct: also called rat Nav1.7 loopB1-C1-D1 llamaFc chimera
T4 chain: T1 chain with R32K, S52T, Q53E, H54Y, T56D, E57Y

B1: 9A11 (antibody, human IgG1, V domains shown)
VH: EVQLVQPGAEVRRPGAAVKVSCKASGFALISSYIDWVRQAPGQGLEWMGRIDPEDGGTSYAQKFQGRVTVTVDTATSTAYVELSSLRSDDTGVYFCMVGDSGYWGQGTQVTVSS
VL: ATMLTQSPGSLSVVPGESASISCKASQSLVHTDGKTYLSWLLQKPGQSPQRLIYQVSTRGSGVPDRVTGSGSGTDFTLKISGVKAEDAGVYYCAQTTYYPPTFGQGTKVELK
B2: 9F10 (antibody, human IgG1, V domains shown)
VH: B1 VH with A79V
VL: ATMLTQSPGSLSVGPGESASISCKAGQSLTHPNGKTYLSWLLQKPGQSPRRLIYETSNRDPGVPDRFTGSGSGTDFTLRIVGVTVEDAGVYYCAQTTYFPIAFGQGTKVELK
B3: 9C12 (antibody, V domains shown)
VH: B1 VH with A79V
VL: ATMLTQSPASLSVVPGESASISCKASQSLVHSDGKTYLYWLLQKPGQSPQRLIYQVSNRGSGVPDRFTGSGSGTDFTLKISGVKAEDAGVYYCAQHTYYPPSFGSGTRLEIK
notes: chimeric llama-human, human IgG1 constant domains
B4: 9A1 (antibody, V domains shown)
VH: EVQLVQPGAELRNPGASVKVSCKASGDTFTDYYIHWVRQAPGQGLEWMGRIDPEDGGTKYTQKFQGRVTFTADTSTSTVYLELDSLRSEDTAVYYCVGDMDYWGKGTLVTVSS
VL: QTVVTQEPSLSVSPGGTVTLTCGLSSGSVTFGNYPSWYQQTPGQAPRTLIYTTNSRHSGVPSRFSGSISGNKATLTISGAQPEDEADFYCALSRVSGTYGTVFGGGTHLTVL
notes: as for B3
B5: 4E8 (antibody, human IgG1, V domains shown)
VH: EVQLQESGGGLVQPGGSLRLSCAASGFTFDDYAMSWVRQAPGKGLEWVSAISWNGGSTYYAESMKGRFTISRDNAKNTLYLQMNSLKSKDTAVYYCARRRYGLGSEYDYWGQGTQVTVSS
VL: NFMLTQPSAVSVSLGQTARITCQGSSFGSSYAHWYQQMPGQAPILVIYRDSERPSGIPDRFSGSNSGGTATLTISGAQAEDEADYYCQSGSSSGNAHAVFGGGTHLTVLG
B6: 4H6 (antibody, human IgG1, V domains shown)
VH: QVQLQESGPGLVKPSQTLSLTCTVSGGSITNYGWSWIRQPPGKGLEWMGVIAYDGSTYYSPSLKSRTSISRDTSKNQFSLQLSSVTPEDTAVYYCASAMVTTSSPWVKTFGAWGQGTQVTVSS
VL: QAGLTQPPSVSGSPGKTVTISCAGTSSDVGYGNYVSWYQQLPGMAPKLLLYSVNKRASGIADRFSGSKSGNTASLTISGLQSEDEADYYCGCYDSSLSTPVFGGGTKLTVLG
B7: 4F7 (antibody, human IgG1, V domains shown)
VH: QVQLQESGPGLVKPSQTLSLTCTVSGGSITTSFYAWSWIRQPPGKGLEWMGVIAYDGRTFYSPSLKSRTHISRDTSKNQFSLQLSSVTPEDTAVYYCARGGVVAWSYDYWGQGTQVTVSS
VL: SYELTQSPSVSVALRQTAKITCGGNDIGSKSTQWYQQKAGQAPVLVIYADSRRPSGIPERFSGSNSGNTATLTISGAQAEDEADYYCQVWDSRADAAVFGGGTHLTVLG
B8: 6H8 (antibody, human IgG1, V domains shown)
VH: EVQLVESGGGLVQPGGTLRLSCAASGFTFSNYWMHWVRQAPGKGLEWVSVIDRGGGGTRYADSVKGRFTISRDNAKNTLYLRMNSLKPEDTALYYCTRDRNGEYDYWGRGTQVTVSS
VL: DIQMTQSPSSVTASAGEKVTINCKSSQSVLYSSNQKNYLAWYQQRLGQSPRLLIYWASTRESGVPDRFSGSGSTTDFTLTINNFQPEDAAVYYCQQGYSAPLTFGQGTKVELK

Positions count from the first letter of the chain named.

T5 sequence (Q15858 269-339 limits assumed): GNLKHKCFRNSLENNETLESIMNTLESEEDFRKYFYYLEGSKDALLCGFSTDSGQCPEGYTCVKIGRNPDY

In the first experiment the target is T1, hNav1.7-loopB1-C1-D1-llama Fc. The experiment can be described thus: ELISA, coated loop-B1-C1-D1-llama Fc 20 ng/well, mAb titrated. As for the experimental part:
(§1) mAbs originating from the loopA3-llama Fc immunization were assayed for their affinity for hNav1.7-loopA3. Therefore, a Maxisorp plate was coated with 10 ng/well of loopA3-llamaFc chimera and incubated overnight at 4° C. The next day, the plate was blocked with PBS+1% casein for 2 hours at RT. Subsequently a concentration gradient of antibodies was applied (range 0.25 pM-66 nM) for another hour. Antibody binding to loopA3 was detected using a HRP-conjugated anti-human Fc antibody (Abcam, Ab7499) (incubation 1 hour at RT, dilution 1/5000 in PBS+0.1% casein), followed by TMB addition and OD620 nm measurement. EC50 values were determined using GraphPad Prism software. For comparison purposes a known hNav1.7-loopA3 binding monoclonal antibody, UCB_932 (US2011/0135662), was tested.
In a next experiment, the binding affinity of the loop-specific mAbs was determined and compared to reference mAbs as described in US2011/0135662 (for loop A3: UCB_932, for loopB1-C1-D1: UCB_983, for loopC3: UCB_1066; US2011/0135662). Affinities were determined using an ELISA with a loop-coating of 10 ng/well (loopA3-llama Fc), 20 ng/well (loop-B1-C1-D1-llama Fc) or 50 ng/well (loopC3-llama Fc). The remainder of the experimental setup was identical to abovementioned binding ELISAs. Most of the mAbs show pM affinity for the respective hNav1.7 extracellular loop they are binding. […] The EC₅₀ for the reference mAbs could not be determined (nd) from the ELISA data available because the binding was too weak.
On the technique in general: ELISA stands for enzyme-linked immunosorbent assay.
For B1, the EC50 was 91 pM.

For the molecule B2, the half-maximal effective concentration (EC50) is 81 pM.

On to B3, for which a half-maximal response (EC50) required 220 pM.

B4 gave a concentration giving a half-maximal response (EC50) of 330 pM.

Another experiment has as its target T2, hNav1.5-B1-C1-D1-llFc. The experiment can be described thus: binding ELISA; the panel prints no target, by paragraph 288 and paragraph 555 the coated hNav1.5 loop B1-C1-D1-llama Fc. The source says:
The therapeutic potency of an anti-hNav1.7 antibody will highly depend on the lack of binding to other Nay family members. Of particular interest is hNav1.5, which is expressed on cardiac muscle cells. As such, cross-reactive binding of hNav1.7 antibodies to hNav1.5 could lead to heart failure. To assay the specificity of the mAbs derived from DNA immunization for hNav1.7, the corresponding loopA3 and loopB1-C1-D1 sequences of hNav1.5 were cloned as llamaFc chimera and cross-reactivity was determined using a binding ELISA (FIG. 8). All clones, except clone 9A6 and 9H4, show no cross-reactivity to hNav1.5. In addition, cross reactivity for hNav1.2 was tested for the loopA3-binding clones 8A7 and 8B6 using hNav1.2 and hNav1.7 derived monomeric, GST-tagged loopA3 peptides (Abnova, H00006326-Q01 (hNav1.2) and H00006335-Q01 (hNav1.7)). Again, no cross-reactive binding was observed.
As to B1, the binding result was “no binding (tested: about 130 nM)”.

As to B2, the binding result is listed as “no binding (tested: about 130 nM)”.

For the molecule B3, the binding result is reported as “no binding (tested: about 130 nM)”.

As for B4, the binding result is “no binding (tested: about 130 nM)”.

For a further experiment, the target named is T3, hNav1.7-loopA3-llama Fc fusion. The experiment can be described thus: ELISA, coated hNav1.7-loopA3-llama Fc, mAb titrated. As to the method: as §1
In turn, B5 showed an EC50 of 129 pM.

B6 gave a half-maximal effective concentration (EC50) of 67 pM.

For the molecule B7, the EC50 is 57 pM.

B8: a half-maximal effect (EC50) was put at 66 pM.

The target in the next experiment is T4, RatB1-C1-D1-llFc. The experiment can be described thus: binding ELISA; the panel prints no target, by paragraph 562 the coated rat loop B1-C1-D1-llama Fc.
B2: the binding result was “binds”.

Take B3: the binding result was “binds”.

Regarding B4, the binding result was “binds”.

Another experiment concerns the target T5, GST-tagged hNav1.7-loopA3 (human, UniProt Q15858 269-339).
T5 construct: monomeric GST-tagged peptide; also called hNav1.7-loopA3-GST; Nav1.7-loopA3-GST; not shown: GST tag
The experiment can be described thus: Biacore SPR, antigen on CM5 chip, mAb in flow. As to the method: (§2) In a further experiment, affinity of the loopA3-binding mAbs was determined using Biacore Surface Plasmon Resonance (SPR) analysis.
Background: In SPR one partner is held on a chip, and binding of the other changes the refractive index at the surface.
In turn, B5 had a Kd of 45200 pM and an off-rate (koff) of 0.00063 s⁻¹.

B6 registered a dissociation constant Kd of 50.5 pM and an off-rate (koff) of 1.54e-05 s⁻¹.

B7: binding was characterised by a dissociation constant (Kd) of 82.5 pM and the off-rate (koff) was 1.84e-05 s⁻¹.

Consider B8, for which the Kd came out at 0.609 pM and the off-rate (koff) was 6.9e-07 s⁻¹.

The next experiment addresses T3, hNav1.7-loopA3-llama Fc fusion. The experiment can be described thus: Biacore SPR, antigen on CM5 chip, mAb in flow. As for the experimental part: as §2
B5: the Kd came out at 4280 pM and the koff worked out at 0.000422 s⁻¹.

For B6, the Kd worked out at 120 pM and the koff was found to be 4.48e-05 s⁻¹.

Consider B7, for which the Kd came to 84 pM and the koff turned out to be 2.68e-05 s⁻¹.

Take B8: the dissociation constant Kd turned out to be 1.81 pM and the off-rate (koff) was 3.58e-06 s⁻¹.

A further experiment shares this target. Put plainly: binding ELISA on coated loop-llama Fc chimera (20 ng/well), OD620. As for the experimental part: For all DNA-immunization derived mAbs the binding affinity for the various hNav1.7-loop-llama Fc chimeras was tested in a binding ELISA. Therefore, a Maxisorp plate (Nunc) was coated with 20 ng/well of hNav1.7-loopA3-llama Fc, hNav1.7-loopB1-C1-D1-llama Fc or hNav1.7-loopC3-llama Fc. Remainder of the ELISA setup is as described above. […] Only at very high concentration minor cross-reactivity is observed for some clones.
On to B2, for which the binding result is “no binding (tested: about 66 nM)”.

Consider B3, for which the binding result was “no binding (tested: about 66 nM)”.

Consider B4, for which the binding result is “binds”.

In another experiment the target is human Nav1.7 (full length) (human) (UniProt Q15858). Put plainly: cell-based or functional assay.
In turn, B1 registered a % inhibition of inward current following P02 voltage protocol, 10 µg/ml of 16%; a % inhibition of inward current following P02 voltage protocol, 25 µg/ml of 49.4%; a % inhibition of inward current following P02 voltage protocol, 100 µg/ml of 62.3%.

As for B4, the % inhibition of inward current following P02 voltage protocol, 10 µg/ml came out at 6.4%; the % inhibition of inward current following P02 voltage protocol, 25 µg/ml came out at 24.3%; the % inhibition of inward current following P02 voltage protocol, 100 µg/ml stood at 37.5%.

As usually defined, the EC50 is the concentration giving half of the maximal effect. What is called Kd is a measure of binding affinity in units of concentration. A high value points to a looser complex. As usually defined, the koff is the first-order rate constant of dissociation. A high value points to a short-lived complex.
